Test results as given in article PMC10851674 (Analytical chemistry, 2022).

Biological target: T1, rat cytochrome P450 reductase (rat, UniProt P00388 1-678)
T1 sequence (looked up): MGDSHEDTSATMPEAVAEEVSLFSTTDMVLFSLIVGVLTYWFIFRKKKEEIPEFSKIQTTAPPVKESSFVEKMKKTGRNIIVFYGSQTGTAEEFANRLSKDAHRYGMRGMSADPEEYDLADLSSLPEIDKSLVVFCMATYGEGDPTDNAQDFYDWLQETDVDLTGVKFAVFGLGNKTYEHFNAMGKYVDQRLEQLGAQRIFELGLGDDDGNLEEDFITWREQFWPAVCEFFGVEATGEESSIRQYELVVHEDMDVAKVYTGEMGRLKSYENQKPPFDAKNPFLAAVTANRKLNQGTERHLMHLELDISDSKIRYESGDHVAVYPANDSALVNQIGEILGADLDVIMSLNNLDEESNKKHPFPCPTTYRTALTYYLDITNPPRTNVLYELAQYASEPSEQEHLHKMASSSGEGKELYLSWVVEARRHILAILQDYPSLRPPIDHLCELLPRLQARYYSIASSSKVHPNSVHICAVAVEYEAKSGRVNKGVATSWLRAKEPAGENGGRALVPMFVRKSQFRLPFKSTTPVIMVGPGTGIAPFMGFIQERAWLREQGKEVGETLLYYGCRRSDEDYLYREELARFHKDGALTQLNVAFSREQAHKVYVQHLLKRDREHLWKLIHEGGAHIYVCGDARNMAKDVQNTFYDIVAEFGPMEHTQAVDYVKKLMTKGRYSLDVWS
Assay: SEC

binding result: binds
B1: rabbit cytochrome P450 2B4 (enzyme, UniProt P00178 1-491, looked up)
chain: MEFSLLLLLAFLAGLLLLLFRGHPKAHGRLPPGPSPLPVLGNLLQMDRKGLLRSFLRLREKYGDVFTVYLGSRPVVVLCGTDAIREALVDQAEAFSGRGKIAVVDPIFQGYGVIFANGERWRALRRFSLATMRDFGMGKRSVEERIQEEARCLVEELRKSKGALLDNTLLFHSITSNIICSIVFGKRFDYKDPVFLRLLDLFFQSFSLISSFSSQVFELFPGFLKHFPGTHRQIYRNLQEINTFIGQSVEKHRATLDPSNPRDFIDVYLLRMEKDKSDPSSEFHHQNLILTVLSLFFAGTETTSTTLRYGFLLMLKYPHVTERVQKEIEQVIGSHRPPALDDRAKMPYTDAVIHEIQRLGDLIPFGVPHTVTKDTQFRGYVIPKNTEVFPVLSSALHDPRYFETPNTFNPGHFLDANGALKRNEGFMPFSLGKRICLGEGIARTELFLFFTTILQNFSIASPVPPEDIDLTPRESGVGNVPPSYQIRFLAR
